Patent publication US20200048649A1 (CENTRE NATIONAL DE LA RECHERCHE SCIENTIFIQUE, published 2020)

Experiments:
[1] = target: T1, TRCP VLP (virus-like particle of GFLV CP fused at its N-terminus to TagRFP) (Grapevine fanleaf virus isolate F13 (CP …)); assay: microscale thermophoresis in solution, fluorescent TRCP VLP constant, nanobody titrated, 1:1 model, n=3; SD ±13.63
T1 construct: also called TRCP VLPs; VLP-TRCP

[2] = target: T2, Grapevine fanleaf virus (GFLV) isolate F13 particles (capsid made of the coat protein, CP) (Grapevine fanleaf virus isolate F13, UniProt P18474 606-1109); assay: competitive ELISA on coated GFLV, legend of FIG. 19a
T2 sequence: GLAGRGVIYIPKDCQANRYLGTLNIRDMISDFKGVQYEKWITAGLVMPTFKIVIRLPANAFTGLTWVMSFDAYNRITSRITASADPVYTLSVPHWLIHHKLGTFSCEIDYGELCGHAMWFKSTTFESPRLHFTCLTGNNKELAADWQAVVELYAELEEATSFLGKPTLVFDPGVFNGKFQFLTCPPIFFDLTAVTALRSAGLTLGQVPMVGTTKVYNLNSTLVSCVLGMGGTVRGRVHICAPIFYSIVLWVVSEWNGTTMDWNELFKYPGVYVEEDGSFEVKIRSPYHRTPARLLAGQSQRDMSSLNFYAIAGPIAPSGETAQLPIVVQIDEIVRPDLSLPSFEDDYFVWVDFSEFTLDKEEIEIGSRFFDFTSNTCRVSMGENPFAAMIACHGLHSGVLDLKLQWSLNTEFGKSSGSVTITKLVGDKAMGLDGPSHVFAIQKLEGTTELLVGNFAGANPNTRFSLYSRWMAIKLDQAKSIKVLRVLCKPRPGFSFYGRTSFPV

[3] = target: T2, Grapevine fanleaf virus (GFLV) isolate …
[4] = target: T1, TRCP VLP (virus-like particle of GFLV …); assay: dynamic light scattering; TRCP VLP alone 32.0 nm±2 nm
[5] = target: T1, TRCP VLP (virus-like particle of GFLV …); assay: microscale thermophoresis in solution, fluorescent TRCP VLP constant, nanobody titrated, 1:1 model, n=3; SD ±2.91
[6] = target: T2, Grapevine fanleaf virus (GFLV) isolate …; assay: DAS-ELISA on infected leaves, capture by Ab BIOREBA, detection by Nb:ALP
[7] = target: T1, TRCP VLP (virus-like particle of GFLV …); assay: microscale thermophoresis in solution, fluorescent TRCP VLP constant, nanobody titrated, 1:1 model, n=3; SD ±3.37
[8] = target: T2, Grapevine fanleaf virus (GFLV) isolate …; assay: DAS-ELISA on infected leaves, capture Ab Bioreba, detection Nbp75:ALP

B1: Nanobody Nb122 (VHH)
VHH: QVQLQESGGGSVQGGGSLRLSCAVSGYRFSSYAMAWFRQAPGKEREAVAAYYRGFGGAQHSTHYAASVTGRFTITQNDALNTGYLQMNNLKPEDTAMYYCALSTADDDDWHSLRRYNYWGQGTQVTVSS
Which Kd [1] does the source give for B1 here?
Its Kd is 34.5 nM.

B2: Strep-tagged Nb122 (VHH)
VHH: QVQLQESGGGSVQGGGSLRLSCAVSGYRFSSYAMAWFRQAPGKEREAVAAYYRGFGGAQHSTHYAASVTGRFTITQNDALNTGYLQMNNLKPEDTAMYYCALSTADDDDWHSLRRYNYWGQGTQVTVSS
Does B2 bind [2]?
Result: binds

B3: Nb122 fused to alkaline phosphatase (VHH)
chain: MAQVQLQESGGGSVQGGGSLRLSCAVSGYRFSSYAMAWFRQAPGKEREAVAAYYRGFGGAQHSTHYAASVTGRFTITQNDALNTGYLQMNNLKPEDTAMYYCALSTADDDDWHSLRRYNYWGQGTQVTVSSGGGSGGGVKQSTIALALLPLLFTPVTKARTPEMPLQTQATSREEPPRLPSKHRPGVKTQATSREEPPRLPSKHRPGVKTQATSREEPPRLPSKHRPGVKTQATSREEPPRLPSKHRPGVKTQATSLEVLENRAAQGDITAPGGARRLTGDQTAALRDSLSDKPAKNIILLIGDGMGDSEITAARNYAEGAGGFFKGIDALPLTGQYTHYALNKKTGKPDYVTDSAASATAWSTGVKTYNGALGVDIHEKDHPTILEMAKAAGLATGNVSTAELQDATPAALVAHVTSRKCYGPSATSEKCPGNALEKGGKGSITEQLLNARADVTLGGGAKTFAETATAGEWQGKTLREQAQARGYQLVSDAASLNSVTEANQQKPLLGLFADGNMPVRWLGPKATYHGNIDKPAVTCTPNPQRNDSVPTLAQMTDKAIELLSKNEKGFFLQVEGASIDKQDHAANPCGQIGETVDLDEAVQRALEFAKKEGNTLVIVTADHAHASQIVAPDTKAPGLTQALNTKDGAVMVMSYGNSEEDSQEHTGSQLRIAAYGPHAAHHHHHH
B3 was tested. Which “EC50 (read off the curve)” value [3] did it give?
Its value is ~10000 nM.

B4: Nanobody Nb23 (VHH)
VHH: QVQLQESGGGSVQVGGSLRVACAASGDTFSGYLAAWFRQAPGKGREGVAAINSKRHTTSYADSVKGRFTISKDNADNIMYLEMNSLKPEDTAIYYCAAADAIGLAEYWSTPTLSAARYKYWGQGTQVTVSS
For B4, which “particle diameter of the VLP saturated with the nanobody (DLS)” value (“particle diameter of the VLP saturated” for short) [4] is on record?
The value was 37.8 nm.

What about the Kd [5] of the same binder?
Its Kd is 9.13 nM.

B5: Nb23 fused to EGFP (VHH)
VHH: QVQLQESGGGSVQVGGSLRVACAASGDTFSGYLAAWFRQAPGKGREGVAAINSKRHTTSYADSVKGRFTISKDNADNIMYLEMNSLKPEDTAIYYCAAADAIGLAEYWSTPTLSAARYKYWGQGTQVTVSS
B5 was tested. Which “particle diameter of the VLP saturated” value [4] did it give?
The value was 43.8 nm.

B6: Nbp59 fused to alkaline phosphatase (VHH)
VHH: QVQLQESGGGTVQAGGSLRLSCSISGDTSNSYCMGWFRQAPGKEREVVAHISTGVISPGYNKFSEGRFTISPDNAKNSVYLQMNNLKPDDTAMYYCAARTGYCSGSWGVADSFNGWGQGTQVTVSS
Does B6 bind [6]?
Result: binds

B7: Nanobody Nbp59 (VHH)
VHH: QVQLQESGGGTVQAGGSLRLSCSISGDTSNSYCMGWFRQAPGKEREVVAHISTGVISPGYNKFSEGRFTISPDNAKNSVYLQMNNLKPDDTAMYYCAARTGYCSGSWGVADSFNGWGQGTQVTVSS
How did the Kd [7] turn out when B7 was run?
The Kd was 12.6 nM.

B8: Strep-tagged Nbp59 (VHH)
VHH: QVQLQESGGGTVQAGGSLRLSCSISGDTSNSYCMGWFRQAPGKEREVVAHISTGVISPGYNKFSEGRFTISPDNAKNSVYLQMNNLKPDDTAMYYCAARTGYCSGSWGVADSFNGWGQGTQVTVSS
Does B8 bind [2]?
Result: binds

B9: Strep-tagged Nbp75 (VHH)
VHH: QVQLQESGGGSVQAGGSLRLSCVASEYPSSSTAMAWFRQAPGKEREGVAAINSVRHTTSYADSVKGRFTISKDNADNMMYLEMNSLKPEDTAIYYCAAADAIGLAEYWSTPTLSAARYKYWGQGTQVTVSS
Does B9 bind [2]?
Result: binds

B10: Nbp75 fused to alkaline phosphatase (VHH)
VHH: QVQLQESGGGSVQAGGSLRLSCVASEYPSSSTAMAWFRQAPGKEREGVAAINSVRHTTSYADSVKGRFTISKDNADNMMYLEMNSLKPEDTAIYYCAAADAIGLAEYWSTPTLSAARYKYWGQGTQVTVSS
Does B10 bind [8]?
Result: binds

B11: Strep-tagged Nb125 (VHH)
VHH: QVQLQESGGGSVQAGGSLRLSCAASGYTYSMYCMAWFRQAPGKEREGVAAINSGNRSTYYADSVKGRFTISQDNAKNTVYLIMNSLKPEDTAIYYCAADPQRCGSWTWANMYEYNYWGQGTQVTVSS
Does B11 bind [2]?
Result: binds

B12: Nb23 fused to bacterial alkaline phosphatase (VHH)
chain: QVQLQESGGGSVQVGGSLRVACAASGDTFSGYLAAWFRQAPGKGREGVAAINSKRHTTSYADSVKGRFTISKDNADNIMYLEMNSLKPEDTAIYYCAAADAIGLAEYWSTPTLSAARYKYWGQGTQVTVSSGGGSGGGVKQSTIALALLPLLFTPVTKARTPEMPLQTQATSREEPPRLPSKHRPGVKTQATSREEPPRLPSKHRPGVKTQATSREEPPRLPSKHRPGVKTQATSREEPPRLPSKHRPGVKTQATSLEVLENRAAQGDITAPGGARRLTGDQTAALRDSLSDKPAKNIILLIGDGMGDSEITAARNYAEGAGGFFKGIDALPLTGQYTHYALNKKTGKPDYVTDSAASATAWSTGVKTYNGALGVDIHEKDHPTILEMAKAAGLATGNVSTAELQDATPAALVAHVTSRKCYGPSATSEKCPGNALEKGGKGSITEQLLNARADVTLGGGAKTFAETATAGEWQGKTLREQAQARGYQLVSDAASLNSVTEANQQKPLLGLFADGNMPVRWLGPKATYHGNIDKPAVTCTPNPQRNDSVPTLAQMTDKAIELLSKNEKGFFLQVEGASIDKQDHAANPCGQIGETVDLDEAVQRALEFAKKEGNTLVIVTADHAHASQIVAPDTKAPGLTQALNTKDGAVMVMSYGNSEEDSQEHTGSQLRIAAYGPHAAHHHHHH
How did the “particle diameter of the VLP saturated” value [4] turn out when B12 was run?
The value was 40 nm.
